Data published in patent publication US12533399B2, “Composition comprising tTF-NGR for use in treating soft-tissue sarcoma” (ANTUREC PHARMACEUTICALS GMBH, priority 2020, dated 2026).

What was measured:
[1] = test system: HT1080 human sarcoma cells; assay: PS upregulation on HT1080 sarcoma cells; format: cell-based; conditions: Trabectedin 10 nM, 8 h; 6 experiments; p=0.001 vs non-Trabectedin control
Procedure: FIG. 5: illustration of the synergistic activity of tTF-NGR and Trabectedin in HT1080 human sarcoma cells. […] Means+standard error (p value=0.001). Propidiumiodide was used as an internal necrosis control. […] Means of 4 experiments+standard error and p-values.
As in tumor tissues part of the inner vascular cell layer of the neovasculature is not formed by endothelial cells, but also by tumor cells, which is termed “vascular mimicry”, analog experiments were also performed with HT1080 human sarcoma cells instead of HUVECs (see FIG. 5).

HUVEC = assay: PS upregulation on HUVEC cell membranes, flow cytometry with annexin V-FITC; format: cell-based, human
Procedure: FIG. 4: illustration of the synergistic activity of tTF-NGR and Trabectedin in human vascular endothelial cells (HUVEC). […] PS is detected by the fluorescent PS-binding annexin V-FITC.
This effect is specifically dependent on the presence of PS as it can be completely abolished by masking PS via preincubation with annexin V.

tumor = assay: Intravascular contrast enhanced MRI of the tumor after tTF-NGR (FIG. 3); format: in vivo; conditions: few hours after tTF-NGR application
Text: FIG. 3: illustration of the therapeutic activity and modes of action of tTF-NGR by different imaging techniques. 1. Bluish coloration of the tumor (A, left: tTF-NGR. A, right: vehicle control) few hours after injection of tTF-NGR macroscopically visualizing blood pooling and vascular disruption. 2. Intravascular contrast enhanced Magnetic Resonance Imaging (MRI) of the tumor showing anatomy of the tumors (A, B) and drastic decrease of blood flow from high blood flow (C) to low (D) few hours after tTF-NGR application. The vascular volume fraction was quantified to decrease>1 log. 3. H&E staining of sarcoma xenograft tissue (A, thrombosis, blood pooling and vascular disruption after tTF-NGR; B, saline control with normal vasculature). 4. In vivo fluorescence reflectance imaging showing the vascular anatomy by intravascular fluorescent fibrin after tTF-NGR (B). A, before tTF-NGR; B, 1 hour after tTF-NGR; C, vascular disruption 24 hours after tTF-NGR.

[2] = test system: tumor blood flow (intratumoral blood circulation); assay: Clinical phase I study of tTF-NGR: tumor blood flow by CEUS and MRI; format: in vivo, human; conditions: patients
Procedure: (§1) A clinical phase I trial was performed (EudraCT-No.: 2016-003042-85; NCT02902237) with tTF-NGR applied as 1-hour infusion solved in 0.9% NaCl via a central venous line in late stage cancer patients. This trial was a first-in-class trial, which was guided by repeated contrast-enhanced ultrasound (CEUS) and MRI to assess for blood flow decrease in tumor signal lesions. A “5-day q day 22” schedule was used in the study design.
(§2) The tumor blood flow inhibition was up to >1-log-step. […] In none of the patients treated so far a CR or a PR could be observed.

[3] = test system: late stage solid tumor and lymphoma patients; assay: Clinical phase I study of tTF-NGR: DLT, safety, response; format: in vivo, human
Procedure: as §1
This sensitive laboratory DLT was fast reversible and allows early monitoring for subsequent dose adjustment in future trials. […] Thus, the trial was completed with a recommended dose for phase II (RPIID) at 3 mg/m^2/day×5, q d 22. The investigational medicinal product (IMP) is given via a PORT central venous access in 100 mL 0.9% NaCl over a rate-controlled infusion with a 1-hour duration.
as §2

[4] = Clinical phase I study of tTF-NGR: pharmacokinetics; format: in vivo, human; conditions: patients
Procedure: as §1

CD13 = target: T1, CD13 (Homo sapiens, UniProt P15144); assay: Binding of tTF-NGR to its target on growing endothelial cells; format: cell-based
T1 construct: endogenous in cells; host or cells: growing / stimulated endothelial cells (EC)
Procedure: (§3) These fusion proteins were tested in vitro and in vivo for essential therapeutic properties, such as pro-coagulatory activity, specific binding to their respective target molecules on stimulated endothelial cells (EC) or pericytes, in vivo intratumoral accumulation, in vivo intratumoral activation of coagulation, tumor vascular occlusion and inhibition of blood flow, pharmacodynamic properties including therapeutic antitumor activity in xenotransplants of human tumors from different histologic origin, and finally rodent as well as non-rodent animal safety and toxicology. […] Preclinical therapeutic activity of tTF-NGR was independent of tumor histology (e.g. melanoma, lung, breast, sarcoma, glioblastoma).

[5] = Toxicity evaluation according to EU-guidelines S6 and S9; format: in vivo; conditions: most sensitive species (mouse)
Text: tTF-NGR was produced using E. coli via a clinical-grade production process and a 4-step HPLC purification. The production process and the GMP facility are approved by the regional government (Manufacturer's Authorisation by Regierungspräsidium) and the federal Paul Ehrlich-Institute (PEI). Toxicity evaluation according to EU-guidelines S6 and S9 in mouse, rat, guinea pigs, and dogs has been completed.

[6] = test system: xenotransplants of human tumors; assay: Preclinical therapeutic activity in xenotransplants of human tumors; format: in vivo
Procedure: as §3

T1 sequence (P15144 whole entry): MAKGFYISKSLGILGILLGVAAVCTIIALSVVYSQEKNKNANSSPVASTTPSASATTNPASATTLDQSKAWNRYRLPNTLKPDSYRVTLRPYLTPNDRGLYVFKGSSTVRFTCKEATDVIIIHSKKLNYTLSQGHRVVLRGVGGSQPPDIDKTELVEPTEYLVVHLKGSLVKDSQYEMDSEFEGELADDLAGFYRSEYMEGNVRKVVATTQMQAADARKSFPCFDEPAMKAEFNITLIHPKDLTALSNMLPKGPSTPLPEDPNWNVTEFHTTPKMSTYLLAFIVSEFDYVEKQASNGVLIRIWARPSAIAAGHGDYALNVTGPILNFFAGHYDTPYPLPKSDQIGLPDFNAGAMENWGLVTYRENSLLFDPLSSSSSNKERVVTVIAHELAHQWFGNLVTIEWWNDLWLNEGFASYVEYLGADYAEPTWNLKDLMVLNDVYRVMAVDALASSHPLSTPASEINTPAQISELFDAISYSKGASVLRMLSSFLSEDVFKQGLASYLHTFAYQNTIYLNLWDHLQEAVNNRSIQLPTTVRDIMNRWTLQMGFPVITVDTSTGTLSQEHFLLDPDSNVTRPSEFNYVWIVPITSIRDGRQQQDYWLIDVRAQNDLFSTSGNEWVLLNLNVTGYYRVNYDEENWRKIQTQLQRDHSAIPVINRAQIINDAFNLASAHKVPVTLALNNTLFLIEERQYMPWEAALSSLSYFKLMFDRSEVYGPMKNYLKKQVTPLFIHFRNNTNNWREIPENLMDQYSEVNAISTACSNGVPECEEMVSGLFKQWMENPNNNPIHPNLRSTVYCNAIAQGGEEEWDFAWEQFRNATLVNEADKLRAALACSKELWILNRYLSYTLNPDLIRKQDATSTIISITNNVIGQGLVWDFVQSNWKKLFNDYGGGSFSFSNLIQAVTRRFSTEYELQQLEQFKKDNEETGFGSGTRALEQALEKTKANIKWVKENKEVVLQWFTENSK

| Molecule | PS upregulation on HT1080 sarcoma cells [1] | PS-positive cells (lower right quadrant) (HUVEC; Trabectedin 15 nM, 8 h incubation, 7.21% without Trabectedin, one example experiment) | PS upregulation on HUVECs (HUVEC; increasing doses, after 8 and 12 h, 7 experiments, P<0.0001 vs non-Trabectedin control) | decrease of vascular volume fraction (tumor) | blood flow in normal organs [2] | tumor blood flow inhibition ([2]; up to) | adverse event ([3]; at 3 mg/m^2, CTCAE II resolved, patient with angiosarcoma in left atrium) | kind of dose-limiting toxicity ([3]; at 4 mg/m^2/day, fast reversible, no clinical sequelae) | adverse event ([3]; at 4 mg/m^2, CTCAE grade II and resolved) | adverse event ([3]; at 5 mg/m^2, 1 patient, completely resolved) | dose limiting toxicity (DLT) dose ([3]; daily 1-hour iv infusions for 5 days, q day 22) | patients with CR or PR ([3]; patients treated so far) | human anti-fusion protein antibodies (HAFA) ([3]; without clinical symptoms or neutralizing capacity) | recommended dose for phase II (RPIID) ([3]; x5, q d 22) | accumulation with repeated cycles [4] | mean terminal half life ([4]; 1-hour iv infusion) | binding to CD13 on growing EC (CD13) | limiting toxicity [5] | effect on tumor growth ([6]; independent of tumor histology (melanoma, lung, breast, sarcoma, glioblastoma)) | resistance development ([6]; repeated rounds of treatment) |
| --- | --- | --- | --- | --- | --- | --- | --- | --- | --- | --- | --- | --- | --- | --- | --- | --- | --- | --- | --- | --- |
| COc1cc2c(cc1O)CCN[C@]21CS[C@@H]2c3c(OC(C)=O)c(C)c4c(c3[C@H](COC1=O)N1[C@@H]2[C@H]2c3c(cc(C)c(OC)c3O)C[C@@H]([C@@H]1O)N2C)OCO4 [Trabectedin] | significant PS upregulation | 29.22% | PS upregulation | – | – | – | – | – | – | – | – | – | – | – | – | – | – | – | – | – |
| tTF-NGR: fusion protein of truncated tissue factor (tTF) with C-terminal NGR targeting peptide binding CD13 and N-terminal His-tag, SEQ ID NO: 2 (protein, His-tTF-NGR fusion protein) MHHHHHHSSGLVPRGSGMKETAAAKFERQHMDSPDLGTDDDDKAMGSGTTNTVAAYNLTWKSTNFKTILEWEPKPVNQVYTVQISTKSGDWKSKCFYTTDTECDLTDEIVKDVKQTYLARVFSYPAGNVESTGSAGEPLYENSPEFTPYLETNLGQPTIQSFEQVGTKVNVTVEDERTLVRRNNTFLSLRDVFGKDLIYTLYYWKSSSSGKKTAKTNTNEFLIDVDKGENYCFSVQAVIPSRTVNRKSTDSPVECMGQEKGEFRGNGRAHA | – | – | – | > 1 log | without blood flow decrease in normal organs | > 1 log-step | transient ischemic attack | temporary troponin T hs showed increase | central venous catheter-related venous thrombosis | CTCAE grade II lower limb deep vein thrombosis | 5 mg/m^2 per day | none | detected in few patients | 3 mg/m^2/day | no accumulation | 8.99 h | specifically binds to CD13 | pulmonary embolism | tumor growth inhibition and regression | no resistance development |
